Patent US12516145B2 (priority 2019, dated 2026)

Experiments:
[1] = Dynamic light scattering (hydrodynamic size); assay type: physicochemical; settings: for Dh: hydrodynamic diameter by DLS, photo-PISA at solids content of 15 wt. %; for Rh: hydrodynamic radius by DLS; for hydrodynamic diameter / size by DLS: in water (DIW)
Procedure: (§2) Dynamic Light Scattering (DLS) and Zeta Potential Analysis: DLS and zeta potential analyses were conducted at room temperature on a Zetasizer Nano-ZS (Malvern). The laser for DLS was at a wavelength of 633 nm.

[2] = Transmission electron microscopy (particle size); assay type: physicochemical; settings: for Rcore: estimated by TEM analysis
Procedure: Dry-State Transmission Electron Microscopy (TEM): Twenty microliters of samples were applied onto a 400 mesh carbon grids (Ted Pella, INC.). The grids were observed on a Hitachi HT 7700 microscope operating at 120 kV. The images were recorded with a slow-scan charge-coupled device (CCD) camera (Veleta 2k×2k).

[3] = Zeta potential analysis; assay type: physicochemical; settings: room temperature
Procedure: as §2

[4] = system: HeLa cells; assay: Flow cytometry for uptake ability in HeLa cells (Example 1); assay type: cell-based, human; settings: rhodamine B-labeled, 0.25 μM with respect to dye, 24 hours
Procedure: Flow Cytometry: The cell uptake study was analyzed via flow cytometry using a BD FacsAria Ilu 4-Laser flow cytometer (Becton Dickinson Inc., USA). Mean fluorescence intensity and PE-A-histogram data was prepared for presentation using FlowJo v10.
For cellular uptake measurements, HeLa cells were plated in 12-well plates at a density of 1,000,000 per well and incubated for 24 hours in a 5% CO2 atmosphere at 37° C. 500 μL of 0.25 μM (with respect to rhodamine) KLA peptide, poly(KLAAm25-co-DMA75), poly(KLAAm25-co-DMA25), and poly(KLAAm10) in 10% FBS DMEM media without phenol red were incubated with the cells for 24 hours respectively. After triple washing with DPBS, 500 μL of 0.25% Trypsin-EDTA was added to each well for 10 min at 37° C. Cells were fixed with a 4% paraformaldehyde solution for 15 min at room temperature.

[5] = system: HeLa cells; assay: CellTilter-Blue cell viability assay of KLA based materials (Example 1); parameters: species or system human; settings: even at 100 μM with respect to peptide, 72 hours, 37 °C
Procedure: Hela cells were purchased from ATCC. Cells were cultured at 37° C. under 5% CO2 in phenol-red containing Dulbecco's Modified Eagle Medium (DMEM; Gibco Life Tech., cat. #11960-044) supplemented with 10% fetal bovine serum (Omega Scientific, cat. #11140-050), sodium pyruvate (Gibco Life Tech., cat. #35050-061), L-glutamine (Gibco Life Tech., cat. #35050-061), and the antibiotics penicillin/streptomycin (Corning Cellgro, cat. #30-002-C1). Cells were grown in T75 culture flasks and subcultured at ˜75-80% confluency.
The cytotoxicity of materials was assessed using the CellTilter-Blue assay. HeLa cells were plated at a density of 5000 cells per well in a 96 well plate 18 hours prior to treatment. Materials were dissolved in DPBS at the desired concentration and added to the wells along with a 10% DMSO positive control. Cells were incubated for 72 hours at 37° C. Note that the concentration of all the materials is with respect to the peptide concentration to ensure that all peptides and polymers are fairly compared with respect to their therapeutic components. The media was removed and 80 μL of new media without phenol red was added followed by adding 20 μL of CellTilter-Blue reagent. The cells were incubated for 3 hours at 37° C. The fluorescence was measured at 560 nm excitation and 590 nm emission wavelength.

[6] = system: trypsin; assay: Trypsin-induced cleavage (proteolytic resistance) by RP-HPLC; assay type: in vitro ADME; settings: isolated enzyme trypsin; trypsin 0.1 μM, 200 μM peptide, PBS pH 7.4, 37 °C; read-out: peptide cleaved by trypsin within 1 h
Procedure: For protease-triggered cleavage experiments, the molar ratio of trypsin to peptide was set to 1:2000. Moreover, the temperature was set to 37° C. to match the body temperature. For example, poly[(KLAAm10-co-DMA30)-b-(DAAm70-co-DMA30)](NP1, 0.9 mg, 0.2 μmol with respect to peptides, 2000 equiv.) was dissolved in 1 ml of DPBS solution. […] During the cleavage, aliquots were taken for HPLC analysis at predetermined time points.

[7] = amine groups; cited from earlier work
[8] = cited from earlier work
[9] = target: T1, thermolysin (Bacillus thermoproteolyticus, UniProt P00800); settings: for morphology change of micelles after treatment with thermolysin: TEM and DLS, spherical micelles before treatment
T1 sequence (P00800 233-548): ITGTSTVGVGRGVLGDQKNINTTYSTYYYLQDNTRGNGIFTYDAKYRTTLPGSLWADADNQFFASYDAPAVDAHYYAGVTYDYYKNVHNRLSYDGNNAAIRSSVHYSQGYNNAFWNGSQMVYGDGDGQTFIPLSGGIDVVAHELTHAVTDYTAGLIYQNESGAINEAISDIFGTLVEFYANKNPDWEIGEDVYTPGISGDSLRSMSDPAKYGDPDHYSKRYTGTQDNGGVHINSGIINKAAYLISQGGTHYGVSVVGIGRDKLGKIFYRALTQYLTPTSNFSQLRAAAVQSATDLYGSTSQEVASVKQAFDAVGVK
Procedure: Transmission Electron Microscope (TEM): Twenty microliters of sample were applied onto a 400 mesh carbon grids (Ted Pella, INC.). The grids were observed on a Hitachi HT 7700 microscope operating at 120 kV. The images were recorded with a slow-scan charge-coupled device (CCD) camera (Veleta 2k×2k).
Dynamic Light Scattering (DLS): DLS analysis was conducted at room temperature on a Zetasizer Nano-ZS (Malvern). The laser for DLS was at a wavelength of 633 nm.
(§1) For enzyme-triggered cleavage experiments, the molar ratio of thermolysin to peptide was set to 1:300. Moreover, the temperature was set to 55° C. to achieve the optimal activity of thermolysin. For example, poly(PepAm21-co-DMA24) (P4, 1 mg, 0.87 μmol with respect to peptides, 300 equiv.) was dissolved in 1 ml of DPBS solution. Then thermolysin (0.1 mg, 2.9 nmol, 1 equiv.) was added into the polymer solution which was stirred in a preheated oil bath at 55° C. In the case of control experiments which involved using deactivated thermolysin, EDTA (100 equiv. to thermolysin) was utilized to capture the zinc and calcium ions, resulting in denaturing of thermolysin.

[10] = target: T1, thermolysin; settings: thermolysin 1/300 equiv. to peptides, 55 °C, DPBS, HPLC
Procedure: Analytical High-Performance Liquid Chromatography (HPLC): Analytical HPLC analysis of peptides was performed on a Jupiter 4μ Proteo 90A Phenomenex column (150×4.60 mm) using a Hitachi-Elite LaChrom L-2130 pump equipped with UV-Vis detector (Hitachi-Elite LaChrom L2420).
as §1

[11] = system: HeLa cells; assay: CellTiter-Blue cell viability assay of nanoparticles (Example 2); assay type: cell-based, human; settings: 72 h; for cytotoxicity in HeLa cells: 37 °C, concentration with respect to total KLA peptide content
Procedure: Fluorescence Measurement: CellTiter-Blue® fluorescence measurements were recorded using a Perkin Elmer EnSpire multimode Plate Reader.
HeLa cells were grown in Dulbecco's modified Eagle medium (DMEM) supplemented with 10% fetal bovine serum (FBS), 1% penicillin-streptomycin. Cells were maintained at 37° C. and 5% CO2 with a relative humidity of 95%. HeLa cells were plated in 96-well plates at a density of 5000 per well and then left to attach for 24 h. Subsequently, the cells were treated with the polymers of various concentrations for the desired time followed by washing 3 times with PBS. Then CellTiter-Blue® at 10% (v/v) in complete media was added to each well and incubated for 2 h to allow the live cells to convert resazurin to fluorescent resorufin. The fluorescent signal (Excitation wavelength: 560 nm; Emission wavelength: 600 nm) was then analyzed by a plate reader. Three replicates were performed for each independent sample. 10% DMSO was used as a positive control and untreated cells in complete medium as a negative control. Viability is reported as a percentage of untreated cells.

[12] = system: mitochondrial membrane potential of HeLa cells; assay: Mitochondria membrane potential of HeLa cells with JC-1 probe; assay type: cell-based, human; settings: 2 μM JC-1, excitation 488 nm, NP5 even after 30 min incubation
Procedure: HeLa cells were plated in 4-well, glass bottom dishes at 30,000 cells per well in 500 μL medium. […] The cells were stained with 2 μM of JC-1 at 37° C. for 15 minutes, washed with PBS to remove any membrane-bound, non-internalized fluorophores, and returned to complete medium. For the positive control group, the cells were incubated with 50 μM CCCP and 2 μM of JC-1 probe in DPBS solution simultaneously for 15 min. Before the confocal observation, 1 drop of Hoechst 33342 dye was added to stain the nuclei. Confocal microscope was employed to observe the fluorescence of JC-1 monomer, J-aggregates and Hoechst dye.

[13] = system: trypsin; assay: trypsin (0.1 μM) in PBS buffer (pH=7.4), molar ratio of trypsin to peptide 1:2000; settings: 37° C.
[14] = system: thermolysin; assay: thermolysin in DPBS solution, molar ratio of thermolysin to peptide 1:300; settings: 55° C.

Q: Which results are given for “poly[(KLAAm10-co-DMA30)-b-(DAAm70-co-DMA30)] (KLAKLAKKLAKLAK) [NP1, KLA peptide brush polymer nanoparticle]”?
A: Dh [1]: 36 nm; Rh [1]: 18 nm; Rcore [2]: 13 nm; Zeta potential [3]: 47 mV

Q: With poly(KLAAm25-co-DMA25) as the molecule, how does the “cellular uptake by flow cytometry” value [4] read?
A: clearly outperformed more sparsely grafted polypeptide brushes

Q: Which “cytotoxicity to HeLa cells” value [5] does the source give for `C=CC(=O)NCCCCCC(=O)N[C@@H](CCCCN)C(=O)N[C@@H](CC(C)C)C(=O)N[C@@H](C)C(=O)N[C@@H](CCCCN)C(=O)N[C@@H](CC(C)C)C(=O)N[C@@H](C)C(=O)N[C@@H](CCCCN)C(=O)N[C@@H](CCCCN)C(=O)N[C@@H](CC(C)C)C(=O)N[C@@H](C)C(=O)N[C@@H](CCCCN)C(=O)N[C@@H](CC(C)C)C(=O)N[C@@H](C)C(=O)N[C@@H](CCCCN)C(N)=O` [KLAAm] here?
A: did not exhibit cytotoxicity

Q: What about the metabolised at 1 h, 200 μM [6] of the same molecule?
A: 100%

Q: And the pKa [7]?
A: 9

Q: What about the “maximum concentration in water” value [8] of the same molecule?
A: about 100 mM

Q: What does the source list for PMMA90-b-poly(PepAm21-co-DMA63) [P8]?
A: morphology change of micelles after treatment with thermolysin [9]: phase transition into a worm-like phase; change in particle diameter with deactivated thermolysin ([9]; thermolysin pretreated with ethylenediaminetetraacetic acid, same cleavage conditions, DLS): no change in diameter; hydrodynamic diameter / size by DLS [1]: 28 nm; diameter / average size by TEM ([2]; dry-state TEM): 24 nm

Q: For PMMA90-b-poly(PepAm9-co-DMA30) [P7], which “morphology change of micelles after treatment with thermolysin” value [9] is on record?
A: transition from spherical micelle to fused worm micelles

Q: For PnBA200-b-poly(PepAm36-co-DMA123) [P9], which “morphology change of micelles after treatment with thermolysin” value [9] is on record?
A: transition from spherical micelle to a mixture of micelles and fiber structure

Q: Which results are given for `CC(C)C[C@H](NC(=O)[C@H](CCCCN)NC(=O)[C@H](C)NC(=O)[C@H](CC(C)C)NC(=O)[C@H](CCCCN)NC(=O)[C@H](CCCCN)NC(=O)[C@H](C)NC(=O)[C@H](CC(C)C)NC(=O)[C@H](CCCCN)NC(=O)[C@H](C)NC(=O)[C@H](CC(C)C)NC(=O)[C@@H](N)CCCCN)C(=O)N[C@@H](C)C(=O)N[C@@H](CCCCN)C(N)=O` [KLA peptide, KLAKLAKKLAKLAK, reference compound]?
A: cytotoxicity to HeLa cells [5]: did not exhibit cytotoxicity; metabolised at 1 h, 200 μM [6]: 100%

Q: For poly(PepAm6-co-DMA7) [P1], which “time within which thermolysin-induced peptide cleavage was complete” value [10] is on record?
A: ≤ 1 h

Q: Which “cellular uptake by flow cytometry” value [4] does the source give for poly(KLAAm10) here?
A: clearly outperformed more sparsely grafted polypeptide brushes

Q: With “poly[(KLAAm10-co-DMA10)-b-(DAAm280-co-DMA120)] (KLAKLAKKLAKLAK) [NP5, KLA peptide brush polymer nanoparticle]” as the molecule, how does the “cytotoxicity in HeLa cells” value [11] read?
A: dose-dependent cytotoxicity

Q: What about the “toxicity compared between nanoparticles” value ([11]; HeLa cells) of the same molecule?
A: significantly higher than NP3

Q: And the “red fluorescence of JC-1 J-aggregates (mitochondrial membrane potential)” value [12]?
A: almost no red emission

Q: And the Dh [1]?
A: 92 nm

Q: Which Dh [1] does the source give for “poly[(KLAAm10-co-DMA10)-b-(DAAm140-co-DMA60)] (KLAKLAKKLAKLAK) [NP4, KLA peptide brush polymer nanoparticle]” here?
A: 64 nm

Q: For “poly[(KLAAm10-co-DMA30)-b-(DAAm280-co-DMA120)] (KLAKLAKKLAKLAK) [NP3, KLA peptide brush polymer nanoparticle]”, which “cytotoxicity in HeLa cells” value [11] is on record?
A: dose-dependent cytotoxicity

Q: What about the Dh [1] of the same molecule?
A: 105 nm

Q: And the Rh [1]?
A: 52 nm

Q: What about the Rcore [2] of the same molecule?
A: 46 nm

Q: What about the Zeta potential [3] of the same molecule?
A: 48 mV

Q: Which fragment found [13] does the source give for KLAKLAKKLAKLAK here?
A: LAK

Q: What does the source list for poly(PepAm21-co-DMA71) [P4]?
A: time within which thermolysin-induced peptide cleavage was complete [10]: ≤ 1 h; hydrodynamic diameter / size by DLS [1]: < 10 nm

Q: With “NP2: KLA peptide brush polymer nanoparticle: shell KLAAm 10, DMA 30; core DAAm 140, DMA 60 (KLAKLAKKLAKLAK)” as the molecule, how does the Dh [1] read?
A: 62 nm

Q: What about the Rh [1] of the same molecule?
A: 31 nm

Q: And the Rcore [2]?
A: 28 nm

Q: What about the Zeta potential [3] of the same molecule?
A: 56 mV

Q: Which cleaved bond [14] does the source give for GPLGLAGG here?
A: glycine (G)-leucine (L)
